In one series the target is α-2-macroglobulin. The experiment in a line: FITC-trypsin on α-2-macroglobulin-loaded hydrogel microspots; CCD camera.
The target of a further series is Ferritin. Nature of the series: FITC-trypsin on ferritin-loaded hydrogel microspots (negative control); CCD camera.
In series [1] the test system is T1, insulin receptor fragment (Peptide No. 1, phosphorylated).
T1 sequence: TRNIXQTNYYRK

Regarding FITC-labeled trypsin (enzyme), the Flourescence Intensity (au) with α-2-macroglobulin was 800 au; with Ferritin it was 20 au.

Take “Leucocyte Antigene Related (LAR) protein tyrosin phosphatase”: the “loss of fluorescent signal (removal of the phosphate group, detected with anti-phosphotyrosine antibody)” value in series [1] was “the LAR-PTPase selectively removes the phosphate group substantially completely from Peptide No. 1”.

Values taken from patent US20050100951A1.
